# Assay results as given in patent US20160244525A1.
# Substitutions are numbered along the chain they refer to.
# B1: 2B.1.3.12 (antibody, human IgG1, kappa, V domains shown)
# VH: EVQLVESGGGLVQPGGSLRLSCAASGFPFTSTGISWVRQAPGKGLEWVGRTHLGDGSTNYADSVKGRFTISADTSKNTAYLQMNSLRAEDTAVYYCARTYGIYDTYDMYTEYVMDYWGQGTLVTVSS
# VL: DIQMTQSPSSLSASVGDRVTITCRASQDVDTSLAWYKQKPGKAPKLLIYSASFLYSGVPSRFSGSGSGTDFTLTISSLQPEDFATYYCQQSTGHPQTFGQGTKVEIKR
# B2: 2B.1.1 (antibody, human IgG1, kappa, V domains shown)
# VH: B1 VH with P28T, T51Y, H52W, L53A, G54W, T105L, D107V, M108D
# VL: B1 VL
# B3: 2B.1.3.10 (antibody, human IgG1, kappa, V domains shown)
# VH: B1 VH with T32Q, M108K
# VL: B1 VL
# B4: 2B.1.3.2 (antibody, human IgG1, kappa, V domains shown)
# VH: B1 VH with P28T, M108N
# VL: B1 VL
# B5: 2B.1.3.4 (antibody, human IgG1, kappa, V domains shown)
# VH: B1 VH with P28T, T105I, D107G, M108G
# VL: B1 VL
# B6: 2B.1.3.6 (antibody, human IgG1, kappa, V domains shown)
# VH: B1 VH with P28T, M108E
# VL: B1 VL
# B7: 2B.1.3.8 (antibody, human IgG1, kappa, V domains shown)
# VH: B1 VH with T32L, T105I, D107E, M108K
# VL: B1 VL
# B8: 2B.1.74 (antibody, human IgG1, kappa, V domains shown)
# VH: B1 VH with P28T, T51Y, L53P, G54F, D55R, T105L, D107V, M108D
# VL: B1 VL
# B9: 2B.1.14 (antibody, human IgG1, kappa, V domains shown)
# VH: B1 VH with P28T, T51L, H52W, L53Y, G54F, T105L, D107V, M108D
# VL: B1 VL
# B10: 2B.1.71 (antibody, human IgG1, kappa, V domains shown)
# VH: B1 VH with P28T, T51V, H52W, L53M, G54F, T105L, D107V, M108D
# VL: B1 VL
# B11: 2B.1.28 (antibody, human IgG1, kappa, V domains shown)
# VH: B1 VH with P28T, T51F, H52W, L53A, G54W, D55S, T105L, D107V, M108D
# VL: B1 VL
# B12: 2B.1.95 (antibody, human IgG1, kappa, V domains shown)
# VH: B1 VH with P28T, T51L, H52I, L53F, G54F, D55T, T105L, D107V, M108D
# VL: B1 VL
# B13: 2B.1.50 (antibody, human IgG1, kappa, V domains shown)
# VH: B1 VH with P28T, T51L, H52N, L53F, G54Y, D55S, T105L, D107V, M108D
# VL: B1 VL
# B14: 2B.1.81 (antibody, human IgG1, kappa, V domains shown)
# VH: B1 VH with P28T, T51V, H52N, L53N, G54F, D55Y, T105L, D107V, M108D
# VL: B1 VL
# B15: 2B.1.25 (antibody, human IgG1, kappa, V domains shown)
# VH: B1 VH with P28T, T51W, L53P, G54W, D55M, T105L, D107V, M108D
# VL: B1 VL
# B16: 2B.1.65 (antibody, human IgG1, kappa, V domains shown)
# VH: B1 VH with P28T, T51Y, H52N, L53A, G54Y, D55T, T105L, D107V, M108D
# VL: B1 VL
# B17: 2B.1.88 (antibody, human IgG1, kappa, V domains shown)
# VH: B1 VH with P28T, T51I, H52W, L53M, G54F, D55T, T105L, D107V, M108D
# VL: B1 VL
# B18: 2B.1.94 (antibody, human IgG1, kappa, V domains shown)
# VH: B1 VH with P28T, T51L, H52V, L53F, G54F, D55S, T105L, D107V, M108D
# VL: B1 VL
# B19: 2B.1.78 (antibody, human IgG1, kappa, V domains shown)
# VH: B1 VH with P28T, T51L, H52S, L53F, G54Y, D55S, T105L, D107V, M108D
# VL: B1 VL
# B20: 2B.1.72 (antibody, human IgG1, kappa, V domains shown)
# VH: B1 VH with P28T, T51V, L53P, G54F, D55E, T105L, D107V, M108D
# VL: B1 VL
# B21: 2B.1.44 (antibody, human IgG1, kappa, V domains shown)
# VH: B1 VH with P28T, T51W, H52W, L53S, G54W, D55G, T105L, D107V, M108D
# VL: B1 VL
# B22: 2B.1.52 (antibody, human IgG1, kappa, V domains shown)
# VH: B1 VH with P28T, T51F, H52S, T105L, D107V, M108D
# VL: B1 VL
# B23: 2B.1.30 (antibody, human IgG1, kappa, V domains shown)
# VH: B1 VH with P28T, T51V, H52S, L53F, G54F, D55S, T105L, D107V, M108D
# VL: B1 VL
# B24: 2B.1.82 (antibody, human IgG1, kappa, V domains shown)
# VH: B1 VH with P28T, T51I, H52N, L53F, G54F, D55S, T105L, D107V, M108D
# VL: B1 VL
# B25: 2B.1.93 (antibody, human IgG1, kappa, V domains shown)
# VH: B1 VH with P28T, T51I, H52D, L53N, G54Y, D55W, T105L, D107V, M108D
# VL: B1 VL
# B26: 2B.1.55 (antibody, human IgG1, kappa, V domains shown)
# VH: B1 VH with P28T, T51V, H52D, L53V, G54F, D55W, T105L, D107V, M108D
# VL: B1 VL
# B27: 2B.1.35 (antibody, human IgG1, kappa, V domains shown)
# VH: B1 VH with P28T, T51W, L53P, G54F, D55R, T105L, D107V, M108D
# VL: B1 VL
# B28: 2B.1.38 (antibody, human IgG1, kappa, V domains shown)
# VH: B1 VH with P28T, T51F, H52W, L53A, G54Y, T105L, D107V, M108D
# VL: B1 VL
# B29: 2B.1.33 (antibody, human IgG1, kappa, V domains shown)
# VH: B1 VH with P28T, T51Y, L53P, G54F, D55H, T105L, D107V, M108D
# VL: B1 VL
# B30: 2B.1.80 (antibody, human IgG1, kappa, V domains shown)
# VH: B1 VH with P28T, T51Y, H52W, L53A, G54F, D55S, T105L, D107V, M108D
# VL: B1 VL
# B31: 2B.1.20 (antibody, human IgG1, kappa, V domains shown)
# VH: B1 VH with P28T, T51L, H52D, L53V, G54F, D55W, T105L, D107V, M108D
# VL: B1 VL
# B32: 2B.1.32 (antibody, human IgG1, kappa, V domains shown)
# VH: B1 VH with P28T, T51W, H52V, L53G, G54F, D55T, T105L, D107V, M108D
# VL: B1 VL
# B33: 2B.1.49 (antibody, human IgG1, kappa, V domains shown)
# VH: B1 VH with P28T, T51L, H52S, L53F, G54F, D55S, T105L, D107V, M108D
# VL: B1 VL
# B34: 2B.1.86 (antibody, human IgG1, kappa, V domains shown)
# VH: B1 VH with P28T, T51L, H52S, L53F, G54W, D55T, T105L, D107V, M108D
# VL: B1 VL
# B35: 2B.1.73 (antibody, human IgG1, kappa, V domains shown)
# VH: B1 VH with P28T, T51M, H52I, L53F, G54Y, D55N, T105L, D107V, M108D
# VL: B1 VL
# B36: 2B.1.9 (antibody, human IgG1, kappa, V domains shown)
# VH: B1 VH with P28T, T51Y, L53P, G54Y, D55L, T105L, D107V, M108D
# VL: B1 VL
# Molecular target: FGFR2-IIIb (human) (UniProt P21802)
# Assay: SPR
# Chain of FGFR2-IIIb (human) (P21802 other isoform, or with tags, fused parts or gaps limits assumed): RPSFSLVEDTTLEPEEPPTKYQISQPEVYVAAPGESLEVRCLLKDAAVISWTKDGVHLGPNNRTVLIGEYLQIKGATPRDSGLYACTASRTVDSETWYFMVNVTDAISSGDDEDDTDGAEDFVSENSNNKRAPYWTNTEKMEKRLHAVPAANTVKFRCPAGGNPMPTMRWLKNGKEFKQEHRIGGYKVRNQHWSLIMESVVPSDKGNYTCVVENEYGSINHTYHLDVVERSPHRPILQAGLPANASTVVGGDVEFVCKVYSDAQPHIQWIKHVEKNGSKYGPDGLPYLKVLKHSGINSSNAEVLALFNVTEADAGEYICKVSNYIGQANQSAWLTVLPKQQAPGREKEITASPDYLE
row,Binder,Kd
1,B1,3 nM
2,B2,0.29 nM

# Molecular target: FGFR3-IIIb (human)
# Assay: SPR
# Chain of FGFR3-IIIb (human) (chain, as listed by the source limits assumed): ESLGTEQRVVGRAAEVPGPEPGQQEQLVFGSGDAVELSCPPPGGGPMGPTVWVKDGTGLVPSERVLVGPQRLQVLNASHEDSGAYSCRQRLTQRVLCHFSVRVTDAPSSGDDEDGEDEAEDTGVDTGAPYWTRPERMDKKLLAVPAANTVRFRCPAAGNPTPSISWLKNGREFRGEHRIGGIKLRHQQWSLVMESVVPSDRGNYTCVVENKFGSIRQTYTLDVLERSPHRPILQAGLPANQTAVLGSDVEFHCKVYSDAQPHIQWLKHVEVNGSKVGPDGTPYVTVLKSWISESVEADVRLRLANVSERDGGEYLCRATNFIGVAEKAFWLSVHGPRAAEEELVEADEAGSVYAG
row,Binder,Kd
1,B1,0.5 nM

# Molecular target: FGFR2-IIIb (human) (UniProt P21802)
# Assay: SPR, IgG
row,Binder,Kd
1,B3,2.9 nM
2,B1,3 nM
3,B4,6.6 nM
4,B5,5.8 nM
5,B6,5.9 nM
6,B7,1.4 nM

# Molecular target: FGFR2-IIIb (human) (UniProt P21802)
# Assay: SPR (Biacore T100), IgG captured by anti-human Fc, FGFR flowed
row,Binder,Kd
1,B3,2.9 nM
2,B1,3 nM
3,B2,0.29 nM
4,B8,1.4 nM
5,B9,1.6 nM
6,B10,1.6 nM
7,B11,1.8 nM
8,B12,1.8 nM
9,B13,2 nM
10,B14,2.1 nM
11,B15,2.3 nM
12,B16,2.7 nM
13,B17,0.64 nM
14,B18,3.1 nM
15,B19,3.2 nM
16,B20,3.5 nM

row,Binder,Kd
1,B21,3.6 nM
2,B22,3.9 nM
3,B23,4.1 nM
4,B24,4.9 nM
5,B25,5.1 nM
6,B26,5.9 nM
7,B27,9.4 nM
8,B28,1.1 nM
9,B29,15 nM
10,B30,17 nM
11,B31,1.2 nM
12,B32,1.2 nM
13,B33,1.3 nM
14,B34,1.3 nM
15,B35,1.4 nM
16,B36,1.4 nM

# Molecular target: FGFR3-IIIb (human)
# Assay: as above
row,Binder,Kd
1,B3,0.11 nM
2,B1,0.5 nM
3,B2,0.09 nM
4,B12,0.19 nM
5,B17,0.05 nM
6,B32,0.06 nM
7,B35,0.09 nM

# Molecular target: FGFR2-IIIb (human) (UniProt P21802)
# Assay: blocking ELISA: FGFR2-IIIb-Fc captured on an anti-human Fc plate, antibody titrated, FGF-7 (with heparin) is the blocked ligand, bound FGF-7 read as OD450
row,Binder,IC50 (read off the curve)
1,B3,2 nM
2,B1,2 nM

# Molecular target: FGFR3-IIIb (human)
# Assay: blocking ELISA: FGFR3-IIIb-Fc captured on an anti-human Fc plate, antibody titrated, FGF-1 (with heparin) is the blocked ligand, bound FGF-1 read as OD450
row,Binder,IC50 (read off the curve)
1,B3,1 to 2 nM
2,B1,1 to 2 nM
